T1: FcγRIIA with the high affinity 131 H/H polymorphism on Jurkat NFAT-luciferase reporter cells (UniProt P12318 34-317, limits assumed)
T1 sequence (looked up): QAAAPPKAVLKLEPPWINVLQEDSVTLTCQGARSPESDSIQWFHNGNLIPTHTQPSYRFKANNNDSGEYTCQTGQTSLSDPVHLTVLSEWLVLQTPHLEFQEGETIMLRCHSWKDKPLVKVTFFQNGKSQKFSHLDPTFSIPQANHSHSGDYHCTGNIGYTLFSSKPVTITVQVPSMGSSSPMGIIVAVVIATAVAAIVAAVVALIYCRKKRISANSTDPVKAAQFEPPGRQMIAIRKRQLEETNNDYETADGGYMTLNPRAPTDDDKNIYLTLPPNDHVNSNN

T2: P99A
T2 construct: also called human OX40 alanine mutant P99A on 1624-5 cells
T2 receptor chain: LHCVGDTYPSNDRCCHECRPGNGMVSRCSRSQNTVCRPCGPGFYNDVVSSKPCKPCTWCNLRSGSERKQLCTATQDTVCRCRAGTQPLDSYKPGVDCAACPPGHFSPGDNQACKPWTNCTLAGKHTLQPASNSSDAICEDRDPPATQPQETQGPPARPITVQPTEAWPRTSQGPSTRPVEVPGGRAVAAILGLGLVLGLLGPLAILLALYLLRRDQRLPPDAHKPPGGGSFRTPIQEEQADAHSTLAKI

T3: R62A
T3 construct: also called human OX40 alanine mutant R62A on 1624-5 cells
T3 receptor chain: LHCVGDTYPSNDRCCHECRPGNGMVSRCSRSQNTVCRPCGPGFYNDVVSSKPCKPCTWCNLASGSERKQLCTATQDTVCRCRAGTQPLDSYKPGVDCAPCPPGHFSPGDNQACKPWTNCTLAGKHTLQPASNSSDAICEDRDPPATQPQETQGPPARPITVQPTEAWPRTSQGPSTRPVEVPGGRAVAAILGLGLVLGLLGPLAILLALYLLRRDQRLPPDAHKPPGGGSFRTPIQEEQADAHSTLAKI

T4: P115A
T4 construct: also called human OX40 alanine mutant P115A on 1624-5 cells
T4 receptor chain: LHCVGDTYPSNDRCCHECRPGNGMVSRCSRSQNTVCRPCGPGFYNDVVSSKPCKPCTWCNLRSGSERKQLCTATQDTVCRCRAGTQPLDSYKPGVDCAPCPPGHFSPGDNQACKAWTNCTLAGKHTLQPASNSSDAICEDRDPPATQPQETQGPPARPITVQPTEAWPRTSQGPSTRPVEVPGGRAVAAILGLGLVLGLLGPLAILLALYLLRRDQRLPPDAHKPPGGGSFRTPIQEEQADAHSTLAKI

T5: P93A
T5 construct: also called human OX40 alanine mutant P93A on 1624-5 cells
T5 receptor chain: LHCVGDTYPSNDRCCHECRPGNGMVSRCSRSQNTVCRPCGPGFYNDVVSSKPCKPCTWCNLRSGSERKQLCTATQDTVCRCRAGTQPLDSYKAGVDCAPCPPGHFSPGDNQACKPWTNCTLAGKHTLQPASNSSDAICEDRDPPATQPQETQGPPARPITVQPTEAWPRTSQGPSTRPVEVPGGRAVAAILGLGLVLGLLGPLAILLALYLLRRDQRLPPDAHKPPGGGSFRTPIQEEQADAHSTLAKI

T6: W58A
T6 construct: also called human OX40 alanine mutant W58A on 1624-5 cells
T6 receptor chain: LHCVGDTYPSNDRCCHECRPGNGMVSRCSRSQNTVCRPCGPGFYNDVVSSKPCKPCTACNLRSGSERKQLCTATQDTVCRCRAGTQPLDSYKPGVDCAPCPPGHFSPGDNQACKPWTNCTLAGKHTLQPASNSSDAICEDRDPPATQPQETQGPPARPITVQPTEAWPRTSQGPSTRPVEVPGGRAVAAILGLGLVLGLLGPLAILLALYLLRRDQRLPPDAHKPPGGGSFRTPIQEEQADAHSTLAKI

T7: R80A
T7 construct: also called human OX40 alanine mutant R80A on 1624-5 cells
T7 receptor chain: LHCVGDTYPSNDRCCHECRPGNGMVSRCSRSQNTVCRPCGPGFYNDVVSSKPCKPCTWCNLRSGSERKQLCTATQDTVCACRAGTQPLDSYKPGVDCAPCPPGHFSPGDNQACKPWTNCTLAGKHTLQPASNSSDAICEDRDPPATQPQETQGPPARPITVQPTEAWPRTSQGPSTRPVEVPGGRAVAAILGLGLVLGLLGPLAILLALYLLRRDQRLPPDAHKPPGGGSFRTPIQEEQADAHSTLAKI

T8: N60A
T8 construct: also called human OX40 alanine mutant N60A on 1624-5 cells
T8 receptor chain: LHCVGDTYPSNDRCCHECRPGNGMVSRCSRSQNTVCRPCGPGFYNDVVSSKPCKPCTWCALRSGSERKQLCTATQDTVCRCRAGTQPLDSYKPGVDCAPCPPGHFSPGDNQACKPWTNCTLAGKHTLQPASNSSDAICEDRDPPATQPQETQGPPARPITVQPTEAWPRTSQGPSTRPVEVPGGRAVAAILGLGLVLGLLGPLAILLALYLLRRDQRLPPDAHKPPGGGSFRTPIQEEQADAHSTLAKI

T9: L88A
T9 construct: also called human OX40 alanine mutant L88A on 1624-5 cells
T9 receptor chain: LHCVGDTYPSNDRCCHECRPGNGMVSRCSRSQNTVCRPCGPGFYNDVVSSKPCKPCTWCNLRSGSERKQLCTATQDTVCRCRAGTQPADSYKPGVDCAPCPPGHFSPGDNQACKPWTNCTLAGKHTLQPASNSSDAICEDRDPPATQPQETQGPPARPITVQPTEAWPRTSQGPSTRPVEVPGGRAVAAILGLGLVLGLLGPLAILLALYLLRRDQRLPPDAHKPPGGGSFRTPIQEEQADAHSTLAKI


How the values were obtained:
[1] = target: T1, FcγRIIA with the high affinity 131 H/H …; experiment: cell-based or functional assay
P99A = target: T2, P99A; experiment: flow cytometry on 1624-5 cells expressing the human OX40 alanine mutant; pab1928 at 1.1 and 0.4 µg/ml
Method: (§1) This anti-OX40 antibody non-reactive cell population was subjected to a final, single-cell sorting step. […] The polyclonal anti-OX40 antibody (AF3388, R&D systems) conjugated with APC was diluted at 1:2000. Fc receptor block (1:200; BD Cat no. 553142) was added, and the samples were incubated for 20 minutes at 4° C. […] The cells were then washed and acquired using a flow cytometer (BD Biosciences).

R62A = target: T3, R62A; experiment: as above
Method: as §1

P115A = target: T4, P115A; experiment: as above
Method: as §1

P93A = target: T5, P93A; experiment: as above
Method: as §1

W58A = target: T6, W58A; experiment: as above
Method: as §1

R80A = target: T7, R80A; experiment: as above
Method: as §1

N60A = target: T8, N60A; experiment: as above
Method: as §1

L88A = target: T9, L88A; experiment: as above
Method: as §1

EC50 (read off the curve) [1] | binding result (P99A) | binding result (R62A) | binding result (P115A) | binding result (P93A) | binding result (W58A) | binding result (R80A) | binding result (N60A) | binding result (L88A) | Binder
~1 nM |  |  |  |  |  |  |  |  | pab2193-1 (antibody, human IgG2, kappa) heavy: EVQLVESGGGLVQPGGSLKLSCAASGFTFSGSAMHWVRQASGKGLEWVGRIRSKANSYATAYAASVKGRFTISRDDSKNTAYLQMNSLKTEDTAVYYCTSGIYDSSGYDYWGQGTLVTVSSASTKGPSVFPLAPCSRSTSESTAALGCLVKDYFPEPVTVSWNSGALTSGVHTFPAVLQSSGLYSLSSVVTVPSSNFGTQTYTCNVDHKPSNTKVDKTVERKCCVECPPCPAPPVAGPSVFLFPPKPKDTLMISRTPEVTCVVVDVSHEDPEVQFNWYVDGVEVHNAKTKPREEQFNSTFRVVSVLTVVHQDWLNGKEYKCKVSNKGLPAPIEKTISKTKGQPREPQVYTLPPSREEMTKNQVSLTCLVKGFYPSDIAVEWESNGQPENNYKTTPPMLDSDGSFFLYSKLTVDKSRWQQGNVFSCSVMHEALHNHYTQKSLSLSPG light: not shown
 | binds | binds | binds | binds | no binding (tested: 1.1 µg/ml) | binds | binds | binds | pab1928 (antibody, human IgG1, V domains shown, also called made from the variable regions of Hu106-122 (US 2013/0280275)) VH: QVQLVQSGSELKKPGASVKVSCKASGYTFTDYSMHWVRQAPGQGLKWMGWINTETGEPTYADDFKGRFVFSLDTSVSTAYLQISSLKAEDTAVYYCANPYYDYVSYYAMDYWGQGTTVTVSS VL: DIQMTQSPSSLSASVGDRVTITCKASQDVSTAVAWYQQKPGKAPKLLIYSASYLYTGVPSRFSGSGSGTDFTFTISSLQPEDIATYYCQQHYSTPRTFGQGTKLEIKR
